Literature values in US20240024386A1, “MICROBIOME MEDIATED INDUCTION OF IMMUNE TOLERANCE AND RESOLUTION OF INFLAMMATION” (INFINANT HEALTH, INC., priority 2020, published 2024).

Test system: COVID-19
Details: triple therapy with lopinavir—ritonavir and ribavirin

B1: IFNβ-1b: interferon beta-1b, used in triple therapy with lopinavir—ritonavir and ribavirin (protein, UniProt P01574 22-187, looked up, variant C17S)
Interferon beta: MSYNLLGFLQRSSNFQSQKLLWQLNGRLEYCLKDRMNFDIPEEIKQLQQFQKEDAALTIYEMLQNIFAIFRQDSSSTGWNETIVENLLANVYHQINHLKTVLEEKLEKEDFTRGKLMSSLHLKRYYGRILHYLKAKEYSHCAWTIVRVEILRNFYFINRLTGYLRN
modifications: lacks Met1; non-glycosylated
notes: interferon beta-1b, used in triple therapy with lopinavir—ritonavir and ribavirin
  period of viral shedding for COVID-19: shortened
